Experimental findings from publication PMC7668070 (Proceedings of the National Academy of Sciences of the …, 2020) are described below.

The experiment deals with SARS-CoV-2 spike RBD monomer (328-533), 8XHis tag, AviTag, biotinylated (SARS-CoV-2). In words: flow cytometry on cells. Conditions: one partner purified.

B1: K31F/N33D/H34A/E35Q/N49D/N51S/N53S/E57G/N64D ACE2(614), Aga2p-GFP construct Y354, displayed on yeast (designed binder)
chain: QSTIEEQAKTFLDFFDAQAEDLFYQSSLASWDYSTSITEGNVQNMNDAGDKWSAFLKEQSTLAQMYPLQEIQNLTVKLQLQALQQNGSSVLSEDKSKRLNTILNTMSTIYSTGKVCNPDNPQECLLLEPGLNEIMANSLDYNERLWAWESWRSEVGKQLRPLYEEYVVLKNEMARANHYEDYGDYWRGDYEVNGVDGYDYSRGQLIEDVEHTFEEIKPLYEHLHAYVRAKLMNAYPSYISPIGCLPAHLLGDMWGRFWTNLYSLTVPFGQKPNIDVTDAMVDQAWDAQRIFKEAEKFFVSVGLPNMTQGFWENSMLTDPGNVQKAVCHPTAWDLGKGDFRILMCTKVTMDDFLTAHHEMGHIQYDMAYAAQPFLLRNGANEGFHEAVGEIMSLSAATPKHLKSIGLLSPDFQEDNETEINFLLKQALTIVGTLPFTYMLEKWRWMVFKGEIPKDQWMKKWWEMKREIVGVVEPVPHDETYCDPASLFHVSNDYSFIRYYTRTLYQFQFQEALCQAAKHEGPLHKCDISNSTEAGQKLFNMLRLGKSEPWTLALENVVGAKNMNVRPLLNYFEPLFTWLKDQNKNSFVGWSTDWSPYA
One may read the Kd as the concentration at which binding is half-saturated. The low end stands for higher affinity, the high end for lower affinity. The molecule B1 gave an equilibrium dissociation constant (Kd) of 0.45 nM.

B2: K31F/H34I/E35Q ACE2(614), Aga2p-GFP construct Y293, displayed on yeast (designed binder)
chain: QSTIEEQAKTFLDFFNIQAEDLFYQSSLASWNYNTNITEENVQNMNNAGDKWSAFLKEQSTLAQMYPLQEIQNLTVKLQLQALQQNGSSVLSEDKSKRLNTILNTMSTIYSTGKVCNPDNPQECLLLEPGLNEIMANSLDYNERLWAWESWRSEVGKQLRPLYEEYVVLKNEMARANHYEDYGDYWRGDYEVNGVDGYDYSRGQLIEDVEHTFEEIKPLYEHLHAYVRAKLMNAYPSYISPIGCLPAHLLGDMWGRFWTNLYSLTVPFGQKPNIDVTDAMVDQAWDAQRIFKEAEKFFVSVGLPNMTQGFWENSMLTDPGNVQKAVCHPTAWDLGKGDFRILMCTKVTMDDFLTAHHEMGHIQYDMAYAAQPFLLRNGANEGFHEAVGEIMSLSAATPKHLKSIGLLSPDFQEDNETEINFLLKQALTIVGTLPFTYMLEKWRWMVFKGEIPKDQWMKKWWEMKREIVGVVEPVPHDETYCDPASLFHVSNDYSFIRYYTRTLYQFQFQEALCQAAKHEGPLHKCDISNSTEAGQKLFNMLRLGKSEPWTLALENVVGAKNMNVRPLLNYFEPLFTWLKDQNKNSFVGWSTDWSPYA
In turn, B2 registered a dissociation constant Kd of 1.71 nM.

B3: S19P/N33S/H34V/F40L/N49D/L100P ACE2(614), Aga2p-GFP construct Y375, displayed on yeast (designed binder)
chain: QPTIEEQAKTFLDKFSVEAEDLLYQSSLASWDYNTNITEENVQNMNNAGDKWSAFLKEQSTLAQMYPLQEIQNLTVKLQLQAPQQNGSSVLSEDKSKRLNTILNTMSTIYSTGKVCNPDNPQECLLLEPGLNEIMANSLDYNERLWAWESWRSEVGKQLRPLYEEYVVLKNEMARANHYEDYGDYWRGDYEVNGVDGYDYSRGQLIEDVEHTFEEIKPLYEHLHAYVRAKLMNAYPSYISPIGCLPAHLLGDMWGRFWTNLYSLTVPFGQKPNIDVTDAMVDQAWDAQRIFKEAEKFFVSVGLPNMTQGFWENSMLTDPGNVQKAVCHPTAWDLGKGDFRILMCTKVTMDDFLTAHHEMGHIQYDMAYAAQPFLLRNGANEGFHEAVGEIMSLSAATPKHLKSIGLLSPDFQEDNETEINFLLKQALTIVGTLPFTYMLEKWRWMVFKGEIPKDQWMKKWWEMKREIVGVVEPVPHDETYCDPASLFHVSNDYSFIRYYTRTLYQFQFQEALCQAAKHEGPLHKCDISNSTEAGQKLFNMLRLGKSEPWTLALENVVGAKNMNVRPLLNYFEPLFTWLKDQNKNSFVGWSTDWSPYA
Take B3: binding was characterised by a dissociation constant (Kd) of 0.61 nM. Against the preceding molecule, the Kd is about 2.8-fold lower.

B4: S19P/Q42L/L79T/N90Q ACE2(614), Aga2p-GFP construct Y355, displayed on yeast (designed binder)
chain: QPTIEEQAKTFLDKFNHEAEDLFYLSSLASWNYNTNITEENVQNMNNAGDKWSAFLKEQSTTAQMYPLQEIQQLTVKLQLQALQQNGSSVLSEDKSKRLNTILNTMSTIYSTGKVCNPDNPQECLLLEPGLNEIMANSLDYNERLWAWESWRSEVGKQLRPLYEEYVVLKNEMARANHYEDYGDYWRGDYEVNGVDGYDYSRGQLIEDVEHTFEEIKPLYEHLHAYVRAKLMNAYPSYISPIGCLPAHLLGDMWGRFWTNLYSLTVPFGQKPNIDVTDAMVDQAWDAQRIFKEAEKFFVSVGLPNMTQGFWENSMLTDPGNVQKAVCHPTAWDLGKGDFRILMCTKVTMDDFLTAHHEMGHIQYDMAYAAQPFLLRNGANEGFHEAVGEIMSLSAATPKHLKSIGLLSPDFQEDNETEINFLLKQALTIVGTLPFTYMLEKWRWMVFKGEIPKDQWMKKWWEMKREIVGVVEPVPHDETYCDPASLFHVSNDYSFIRYYTRTLYQFQFQEALCQAAKHEGPLHKCDISNSTEAGQKLFNMLRLGKSEPWTLALENVVGAKNMNVRPLLNYFEPLFTWLKDQNKNSFVGWSTDWSPYA
For the molecule B4, binding was characterised by a dissociation constant (Kd) of 0.94 nM.

B5: K31Y/W69V/L79T/L91P ACE2(614), Aga2p-GFP construct Y311, displayed on yeast (designed binder)
chain: QSTIEEQAKTFLDYFNHEAEDLFYQSSLASWNYNTNITEENVQNMNNAGDKVSAFLKEQSTTAQMYPLQEIQNPTVKLQLQALQQNGSSVLSEDKSKRLNTILNTMSTIYSTGKVCNPDNPQECLLLEPGLNEIMANSLDYNERLWAWESWRSEVGKQLRPLYEEYVVLKNEMARANHYEDYGDYWRGDYEVNGVDGYDYSRGQLIEDVEHTFEEIKPLYEHLHAYVRAKLMNAYPSYISPIGCLPAHLLGDMWGRFWTNLYSLTVPFGQKPNIDVTDAMVDQAWDAQRIFKEAEKFFVSVGLPNMTQGFWENSMLTDPGNVQKAVCHPTAWDLGKGDFRILMCTKVTMDDFLTAHHEMGHIQYDMAYAAQPFLLRNGANEGFHEAVGEIMSLSAATPKHLKSIGLLSPDFQEDNETEINFLLKQALTIVGTLPFTYMLEKWRWMVFKGEIPKDQWMKKWWEMKREIVGVVEPVPHDETYCDPASLFHVSNDYSFIRYYTRTLYQFQFQEALCQAAKHEGPLHKCDISNSTEAGQKLFNMLRLGKSEPWTLALENVVGAKNMNVRPLLNYFEPLFTWLKDQNKNSFVGWSTDWSPYA
B5 gave a dissociation constant (Kd) of 0.64 nM.
